Source: publication PMC12328215, “Interactions between TTYH2 and APOE facilitate endosomal lipid transfer” (Nature, 2025)
Blank lines part the entries; values can stand above or below the binder they belong to.

Biological target: T1, human TTYH3 (Tweety homologue 3), detergent-solubilized and purified (human, UniProt Q9C0H2)
T1 construct: Tweety homologue 3 (TTYH3), human; gene (Genscript) cloned into the vector pcDXC3MS; Homodimer; source: HEK293 GNTI− cells, transiently transfected, purified in GDN (Strep-Tactin, SEC)
T1 sequence (Q9C0H2 2-523): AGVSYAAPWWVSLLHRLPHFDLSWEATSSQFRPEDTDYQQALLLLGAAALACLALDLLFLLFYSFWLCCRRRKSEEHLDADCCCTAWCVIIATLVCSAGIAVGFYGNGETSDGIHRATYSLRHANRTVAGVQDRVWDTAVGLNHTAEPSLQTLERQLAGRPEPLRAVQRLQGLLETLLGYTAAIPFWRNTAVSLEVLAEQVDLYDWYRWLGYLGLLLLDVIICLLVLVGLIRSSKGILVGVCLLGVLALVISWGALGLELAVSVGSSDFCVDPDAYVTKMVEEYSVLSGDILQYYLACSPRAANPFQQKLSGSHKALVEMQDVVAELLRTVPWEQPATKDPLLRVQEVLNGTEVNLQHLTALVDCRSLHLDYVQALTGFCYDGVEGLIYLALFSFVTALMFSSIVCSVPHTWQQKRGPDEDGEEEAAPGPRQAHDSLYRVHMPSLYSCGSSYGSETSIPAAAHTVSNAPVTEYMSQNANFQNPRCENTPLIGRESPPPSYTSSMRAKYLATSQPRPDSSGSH
Assay: SEC; TTYH2 or TTYH3 with a 1.6 molar excess of sybody on a Superose 6 Increase 5/150 GL column; sybody in the TTYH peak fractions detected by SDS–PAGE
Settings: both partners purified

binding result: no binding
B1: sybody Sb1^TTYH2 (VHH)
VHH: QVQLVESGGGLVQAGGSLRLSCTASGFPVAFAQMKWYRQAPGKEREWVAAIWSMGNETTYADSVKGRFTISRDNAKNTVYLQMNSLKPEDTAVYYCAVEVGYGYHGQGTQVTVS
notes: synthetic nanobody from the concave library (short CDR3); also called Syb1; source: E. coli MC1061, periplasmic expression, purified (Ni-NTA, SEC)

binding result: no binding
B2: sybody Sb2^TTYH2 (VHH)
VHH: QVQLVESGGGLVQAGGSLRLSCAASGFPVTNDSMHWYRQAPGKEREWVAAIASQGRGTAYADSVKGRFTISRDNAKSTVYLQMNSLKPEDTAVYYCNVKDYGYDLQWYDYWGQGTQVTVS
notes: synthetic nanobody from the loop library (medium CDR3); For force spectroscopy immobilised on glass by the protocol used for APOE, or added soluble at 20–50 µM; also called Syb2; unlabelled Sb2; source: E. coli MC1061, periplasmic expression, purified (Ni-NTA, SEC)
